We go through 1 molecule from article doi:10.1101/2023.01.12.523719 (2023).

This assay concerns the target T1, Myc-tagged NLRP6 (ΔPYD).
T1 chain: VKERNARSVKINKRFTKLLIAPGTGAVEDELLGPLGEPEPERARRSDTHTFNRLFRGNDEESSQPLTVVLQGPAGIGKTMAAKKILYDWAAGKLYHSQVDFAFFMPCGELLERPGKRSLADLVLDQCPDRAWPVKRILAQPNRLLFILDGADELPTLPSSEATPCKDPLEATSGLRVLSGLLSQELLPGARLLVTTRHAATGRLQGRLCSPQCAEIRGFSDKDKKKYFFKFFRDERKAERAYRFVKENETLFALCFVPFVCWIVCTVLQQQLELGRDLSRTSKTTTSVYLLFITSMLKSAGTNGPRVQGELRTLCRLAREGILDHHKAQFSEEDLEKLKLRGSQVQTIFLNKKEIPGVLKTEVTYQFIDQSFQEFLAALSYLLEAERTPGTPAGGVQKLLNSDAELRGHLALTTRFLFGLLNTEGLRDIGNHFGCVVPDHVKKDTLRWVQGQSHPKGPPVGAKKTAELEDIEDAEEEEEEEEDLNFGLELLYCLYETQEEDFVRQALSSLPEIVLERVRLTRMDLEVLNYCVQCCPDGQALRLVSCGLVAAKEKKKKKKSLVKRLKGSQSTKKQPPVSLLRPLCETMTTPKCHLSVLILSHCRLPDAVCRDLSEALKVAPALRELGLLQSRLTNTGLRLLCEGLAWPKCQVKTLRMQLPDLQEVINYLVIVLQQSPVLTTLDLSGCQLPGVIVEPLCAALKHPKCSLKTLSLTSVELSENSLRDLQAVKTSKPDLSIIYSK

B1: FLAG-tagged iTie (natural protein)
chain: MGVFQILMKNKELIPLAFFISVAATGATSFALYALKKTDVVIDRKRNPEPWEMVDPTQPQKLITINQQWKPVEELQKVRRATR
B1 showed a Kd of 88 nM.

A word on the Kd: it is the concentration at which binding is half-saturated. Low values mean higher affinity, high ones lower affinity.
